Consider 7 molecules from US6248715A, “Method of treating a urokinase-type plasminogen activator-mediated disorder” (Chiron Corporation, priority 1995, dated 2001).

Where no end group is shown, it is not given here. Fuc = fucose (fucosylation)

For assay [1], the target named is Baculovirus-derived recombinant human urokinase receptor, truncated soluble molecule, biotinylated (human) (UniProt Q03405). Kind of assay: phage panning on biotinylated soluble uPAR on streptavidin plates; eluted cfu as a percentage of input; control phage.
Assay [2] relates to SaOS-2 osteosarcoma cell line. The following applies: cited from earlier work.
A further assay concerns the target uPAR (Homo sapiens, UniProt Q03405). The following applies: cited from earlier work.
Assay [3] addresses Baculovirus-derived recombinant human urokinase receptor, truncated soluble molecule, biotinylated (human) (UniProt Q03405). Kind of assay: phage panning on biotinylated soluble uPAR on streptavidin plates; eluted cfu as a percentage of input; control phagemid.
Assay [4] has the same target. Kind of assay: phage panning on biotinylated soluble uPAR on streptavidin plates; eluted cfu as a percentage of input.
Assay [5] deals with Baculovirus-derived recombinant human urokinase receptor, truncated soluble molecule, biotinylated (human, UniProt Q03405, biotinylated with NHS-biotin). The assay is described as follows: radio-receptor competition assay: 125I-ATF tracer on biotinylated soluble uPAR immobilised on streptavidin plates. The protocol:
Baculovirus-derived recombinant human urokinase receptor was expressed as a truncated, soluble molecule as described previously for mouse L-cells (Masucci et al., *J Biol Chem* (1991) 266:8655). The purified receptor was biotinylated with NHS-biotin, and immobilized at 1 μg/mL in PBS/0.1% BSA on streptavidin coated 96-well plates. Human uPA ATF (residues 1–135, obtained from M. Shuman, University of California, San Francisco) was iodinated using the Iodogen method (Pierce), and used as tracer. The ^125I-ATF was incubated at 100–500 pM with increasing amounts of huPA_1-48 in triplicate (100 pM-1 μM) for 2 hours at room temperature in 0.1% BSA/PBS in a total volume of 200 μL. The plates were then washed 3 times with PBS/BSA, and the remaining bound radioactivity determined.

Chain of uPAR (Q03405 23-335): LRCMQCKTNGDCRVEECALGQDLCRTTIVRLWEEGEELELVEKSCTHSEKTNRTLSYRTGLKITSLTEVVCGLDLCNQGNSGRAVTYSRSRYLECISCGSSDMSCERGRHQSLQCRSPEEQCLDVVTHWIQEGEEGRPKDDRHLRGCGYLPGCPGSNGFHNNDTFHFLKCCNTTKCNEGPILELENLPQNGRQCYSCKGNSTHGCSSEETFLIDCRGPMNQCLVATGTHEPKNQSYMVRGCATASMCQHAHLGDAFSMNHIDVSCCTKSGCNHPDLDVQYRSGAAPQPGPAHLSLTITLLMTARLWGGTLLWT

As to “LP67 control phage (ampicillin-resistant M13)”, the % Yield (+uPAR) in assay [1] turned out to be 0.0099%.

As to “fucosylated EGF-like domain: fucosylated EGF-like domain (uPA4-43, produced by cleavage from pro-uPA) (LHQVPSNCDCLNGGT(Fuc)CVSNKYFSNIHWCNCPKKFGGQHCE; cysteine pairing not given here; UniProt P00749 24-63, looked up, fragment)”, in assay [2], the mitogenic activity result is recorded as “mitogenic”.

“uPA12-32: the critical domain alone, residues 12-32 of uPA (Appella et al.) (DCLNGGTCVSNKYFSNIHWCN; UniProt P00749 32-52, looked up, fragment)”: the “affinity relative to intact ATF (fold less)” value in the assay with uPAR (compared with intact ATF) is given as “about 100 fold”. Also, the Kd with uPAR (critical domain alone, read-out: affinity for uPAR) is 40 nM.

With “Phagemid pGMEGF displaying M1-FLAG-EGF-medium long pIII (from UniProt P01133)”, the % Yield (+uPAR) in assay [3] came to 0.0012%.

With “Phagemid pHM1a displaying M1-FLAG-UPAELD-short pIII (M1Flag-uPA1-48) (from UniProt P00749)”, the % Yield (+uPAR) in assay [4] amounted to 0.094%.

With “Phagemid pHM3a displaying Glu-tag-UPAELD-short pIII (Glutag-uPA1-48) (from UniProt P00749)”, the % Yield (+uPAR) in assay [4] is 0.08%.

As for SNELHQVPSNCDCLNGGTCVSNKYFSNIHWCNCPKKFGGQHCEIDKSK (ligand, ends and bridges not checked; cysteine pairing not given here), in assay [5], the Kd was 0.3 nM.
